According to the nanobody polyreactivity screen of Harvey et al. (2022):

assay: yeast display, Sf9 membrane polyspecificity reagent, FACS + sequencing; frameworks hold sequencing errors
Summary of the method: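 Galactose induction of a Saccharomyces cerevisiae BJ5465 synthetic nanobody display library ran 36–48 hours. The cells were then stained for 1 hour at 4 °C with 10% biotinylated, detergent-solubilized Sf9 membrane reagent, pulled down on streptavidin microbeads and FACS-sorted into low and high (top ~1%) gates on expression and reagent-binding fluorescence. Labels for polyreactivity follow the gate of origin.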

Question: Which “polyreactivity (PSR sort gate)” value does the source give for “QVQLVESGGGLVQAGGSLRLSCAASGSIFDHYAMGWYRQAPGKERELVAAIRTDGSTKYADSVKGRFTISRDNAKNTVYLQMNSLKPEDTAVYYCAATTGYTARWRNRYIYSYWGQGTEVTVSS” here?
Answer: Its value is “high polyreactivity”.

Question: For “QVQLVESGGGLVQAGGSLRLSCAASGLIFVHYAMGWYRQAPGKERELVAAISAGGGSTYYADSVKGRFTISRDNAKNTVYLQMNSLKPEDTAVYYCNARVVNYFRPRTGAREYDYWGQGTQVTVSS”, which “polyreactivity (PSR sort gate)” value is on record?
Answer: The value was “high polyreactivity”.

Question: With “QVQLVESGGGLVQAGGSLRLSCAASGSTFRYNVMGWYRQAPGKERELVATISYSGGSTNYADSVKGRFTISRDNAKNTDYLQMNSLKPEDTAVYYCAARYLYPFYRYWWYDYWGQGTQVTVSS” as the sequence, how does the “polyreactivity (PSR sort gate)” value read?
Answer: The value was “high polyreactivity”.

Question: With “QVQLVESGGGLVQAGGSLRLSCAASGRIFSKYTMGWYRQAPGKERELVAAISGSGTSTYYADSVKGRFTISRDNAKNTVYLQMNSLKPEDTAVYYCNAVKSWGHPGRYYWGQGTQVTVSS” as the sequence, how does the “polyreactivity (PSR sort gate)” value read?
Answer: Its value is “high polyreactivity”.

Question: For “QVQLVESGGGLVQAGGSLRLSCAASGITFTIYGMGWYRQATGKERELVAVISRRGGSTYYADSVKGRFTISRDNAKNTVYLQMNSLKPEDTAFYYCNTRTQGAKQYTGYDYWGQGTQVTVSS”, which “polyreactivity (PSR sort gate)” value is on record?
Answer: The value was “high polyreactivity”.

Question: For “QVQLVESGGGLVQAGGSLRLSCAASGRTFPEYDMGWYIQAPGKERELVAAISTSGGSTYYADSVKGRFTISRDNAKNTVYLQMNSLKPEDTAVYYCAAQVTSIWGFTYAYRYDYWGQGTQVTVSS”, which “polyreactivity (PSR sort gate)” value is on record?
Answer: The value was “low polyreactivity”.

Question: For “QVQLVESGGGLVQAGGSLRLSCAASGFTFEWYTMGWYRQAPGKERELVADISGDGTTYYADSVKGRFTISRDNAKNTLYLQMNSLKPEDTAVYYCAARTVGRKAGFDYWGQGTQVTVSS”, which “polyreactivity (PSR sort gate)” value is on record?
Answer: Its value is “high polyreactivity”.

Question: With “QVQLVESGGGLVQAGGSLRLSCAASGSTIYGYTMGWYRQAPGKEREMVAVITSGGSTYFADSVKGRFTISRDNAKNTVYLQMNSLKPEVTAVYYCAKRYGYTAYGRPWRIGRTYDYWGQGTQVTVSS” as the sequence, how does the “polyreactivity (PSR sort gate)” value read?
Answer: Its value is “low polyreactivity”.

Question: For “QVQLVESGGGLVQAGGSLRLSCAASGFIFSHNAMGWYRQAPGKERELVAAIDYIDGSTYYADSVKGRFTISRDNAKYTVYLQMNSLIPEDTAVYDCAADGLFYWWHYGYWGQGSQVTVSS”, which “polyreactivity (PSR sort gate)” value is on record?
Answer: Its value is “low polyreactivity”.

Question: Which “polyreactivity (PSR sort gate)” value does the source give for “QVQLVESGGGLVQAGGSLRLSCAASGRIFYSYAMGWYRQAPGKERELVAAIRSTGSTNYADSVKGRFTISRDNAKNTVYLQMNSLKPEDTAVYYCAARTSYRSSLYGYWGQGTQVTVSS” here?
Answer: The value was “high polyreactivity”.

Question: With “QVKLVESGGGLVQAGRSLRLICAASGFTFHYNSMGWYRQAPGKEREFVAAISGSGDRTYYADSGKGRFTISRDNAKNTVYLQMNSLKPEDTAVYYCATSVRQNYFYSYDYWGQGTQVTVSS” as the sequence, how does the “polyreactivity (PSR sort gate)” value read?
Answer: Its value is “high polyreactivity”.

Question: For “QVQLEESGGGLVQAGGSLRLSCAASGLTFVYNTMGMYRQAPGKERELVAAINWSGGRTYYADSVKGRFTISRDNAKNTVYLQMNSLKPEDTAVYYCAALYVPNTPTYKYDYWGQGTQVTVSS”, which “polyreactivity (PSR sort gate)” value is on record?
Answer: The value was “low polyreactivity”.

Question: With “QVQLVESGGGLVQAGGSLRLSCAASGIIFYDYAMGWYRQAPGKERELVAAITSNGDNTYYADSVKGRFTISRDNAKNTVYLQMNSLKPEDTAVYYCDVDGSFAADFDNYLEEYGYWGQGTQVTVSS” as the sequence, how does the “polyreactivity (PSR sort gate)” value read?
Answer: Its value is “low polyreactivity”.

Question: With “QVQLVESGGGLVQAGGSLRLSCAASGRIFYRYAMGWYRQAPGKERELVAGITRGGSTYYADSVKGRFTISRDNAKNTVYLQMNSLKPEDTAVYYCNVRWSPAGTGLLDFWGQGSQVTVSS” as the sequence, how does the “polyreactivity (PSR sort gate)” value read?
Answer: Its value is “high polyreactivity”.

Question: For “QVQLVESGGGLVQAGGSLRLSCGASGRIFATNAMGWYRQAPGKERELVATITRSAGRTYYADSVKGRFTISRDNAKNTVYLQMNSLIPEDTAVYYCAASYLDSEPGYREYDYWGQGTQVTVSS”, which “polyreactivity (PSR sort gate)” value is on record?
Answer: The value was “low polyreactivity”.

Question: Which “polyreactivity (PSR sort gate)” value does the source give for “QVQLVESGGGLVQAGGSLRLTCAASGSTFDTYAMGWYRQAPGKERELVAAISGSGVRTYYADSVKGRFTISRDNAKNTVYLQMNSLKPEDTAVYYCAARYPRRCGEYGYWGQGTQVTVSS” here?
Answer: The value was “high polyreactivity”.

Question: With “QGQLVESGGGLVQAGGSLRLSCAASGSIFRPYPMGWYRQAPGKERELVATISSTGITNYADSVKGRFTISRDNAKNTVYLQMNSLKPEDTADYYCSAGLWYSYDYWGQGTQVTVSS” as the sequence, how does the “polyreactivity (PSR sort gate)” value read?
Answer: The value was “high polyreactivity”.

Question: Which “polyreactivity (PSR sort gate)” value does the source give for “QVQLVESGGGLVQAGGSLRLSCAASGRTFGSNTMGWYRQAPGKERELVAAISGTGTSTYYADSVKGRFTISRDNAKNTVYLQMNSLKQEDTAVYYCAAGWYKYLFQPHDYWGQGTQVTVSS” here?
Answer: Its value is “low polyreactivity”.

Question: For “QVQLVESGGGLVQARGSLRLSCAASGSIFYRNAMGWYRQAPGKETELVARIDRGGITHYADSVKGRFTISRDNAMNTVYLQMNSLKPEDTAVYYCAARKGYWYPTGHGARRYDYWGQGTQVTVSS”, which “polyreactivity (PSR sort gate)” value is on record?
Answer: Its value is “high polyreactivity”.

Question: Which “polyreactivity (PSR sort gate)” value does the source give for “QVQLVESGGGLVQAGGSLRLSCAASGSTFYVYDMGWYRQAPGKERELVADISWSGGSTYADSVKGRFTISRDNAKNTVYLQMNSLKPEDTAVYYCAATSRPRPYHGGRMYYWGQGTQVTVSS” here?
Answer: The value was “high polyreactivity”.

Question: Which “polyreactivity (PSR sort gate)” value does the source give for “QVQLVESGGGLVQAGGSLRLSCAASGRIFWYYAMGWYRQAPGKERELVASITRGNNTYYADSVKGRFTISRDNAKNPVYLQMNSLIPEDTAVYYCNAYRVRYTVDSVFYGYDYWGQGTHVTVSS” here?
Answer: The value was “high polyreactivity”.

Question: Which “polyreactivity (PSR sort gate)” value does the source give for “QVQLVESGGGLVQAGGSLRLSCAASGITFYRYAMGWYRQAPGKEREFVAAITWGSTYYADSVKGRFTISRDNAKNTVYLQMTSLKPEDTAVYYCNKKGYTVGATVGYWGQGTQVTVSS” here?
Answer: Its value is “low polyreactivity”.

Question: Which “polyreactivity (PSR sort gate)” value does the source give for “PDQLVESGGGLVQAGGSLRLSCAASGRIFGTNAMGWYRQAPGKERELVADITSGGSTNYADSVKGRFTISRDNAKNTVYLQMNSLKPEDTAVYYCAADVIGDLRWYRDEYWGQGTQVTVSS” here?
Answer: Its value is “low polyreactivity”.

Question: For “QVQLVESGGGLVQAGGSLRLSCAASGITFEGYAMGRYRQAPGKERELVAAITGSGSTTYYADSVKGRFTISRDNAKNTVYLQMNSLKPEDTAVYYCAADVSYKLYWGQGTQVTVSS”, which “polyreactivity (PSR sort gate)” value is on record?
Answer: Its value is “low polyreactivity”.

Question: Which “polyreactivity (PSR sort gate)” value does the source give for “QVQLVESGGGLVQAGGRLRLTCAASGSIFWSNAMGLYRQAPGKERELVAAITSGGSTYYADSVKGRFTISRDNAKNTVYLQMNSLKPEDTAVYYCAARPEVRHQYRRYDYWGQGTQVTVSS” here?
Answer: The value was “low polyreactivity”.

Question: Which “polyreactivity (PSR sort gate)” value does the source give for “QFQLVESGGGLDQAGGSLRLSCAATGSTFTSYAMGWYIQAPGKERELVAAITSRGGTYYADSVKGRFTISRDNAKNTVYLQMNSLKPEDTAVYYCAARATYKKYPYVKWYDYWGQGTQVTVSS” here?
Answer: The value was “high polyreactivity”.

Question: With “QVQLVESGGGLVQAGGSLRLSCAASGITILNYVMGWYRQAPGKERELVAGINFSGDGTYYADSVKGRFTISRDNAKNTVFLLMNSLKPEDTAVYYCAADWLSVSRIYYSWGQGTQVTVSS” as the sequence, how does the “polyreactivity (PSR sort gate)” value read?
Answer: The value was “low polyreactivity”.

Question: For “QVQLVESGGGLVQAGGSLRLSCAASGSTFARNTMGWYRHAPGKERELVAVITRGDSTYYADSVKGRFTISRDNAKNTVYLQMNSLKPEDTAGYYCNAYFRYAYPSKMDYWVQGTQVTVSS”, which “polyreactivity (PSR sort gate)” value is on record?
Answer: Its value is “low polyreactivity”.

Question: Which “polyreactivity (PSR sort gate)” value does the source give for “QVQLVESGGGLVQAGGTLRLSCAASGRIFPAYVMGWYRQAPGKERELVATIDNGGGTYYADSVKGRFTISRDNAKNTVYLQMNSLKPEDTAVYYCARDRHVRWGLKMDYWGQGTQVTVSS” here?
Answer: The value was “low polyreactivity”.

Question: With “QVQLVESGGGLVQAGGSLRLSCAASGSTFFGYAMGRYRQAPGKERELVAAISYRGGSTYYADSVKGRFTISRDNAKNTVYLQMNSLKPEDTAVYYCAATHGPTGSYYWGQGTQVTVSS” as the sequence, how does the “polyreactivity (PSR sort gate)” value read?
Answer: The value was “high polyreactivity”.

Question: With “QVQLVESGGGLVQPGGRLRISCAASGRIFGRYAMGWYRLEPGKERELVAAITSSGGNTYYADSVKGRFTISRDNAKNTVYLQMNSMKPEDTAVYYCIARSARSRRQSDYWGQGTHVTVSS” as the sequence, how does the “polyreactivity (PSR sort gate)” value read?
Answer: Its value is “high polyreactivity”.

Question: For “QVQLVESGGGLVQAGGSLSLSWAASGFILKINTMGWYRPAPRKERDLVADITESGGNTYADSEKWRFTISRDNAKNTVYLQMNSLKPEVTAVYYCNDDIYISPLVQVSKGYDYWGQGTQVTVSS”, which “polyreactivity (PSR sort gate)” value is on record?
Answer: Its value is “low polyreactivity”.

Question: Which “polyreactivity (PSR sort gate)” value does the source give for “QVQLVESGGGLVQAGGSLRLSCAASGITFRRNAMGWSRQAHGQVRELVAAITRSGGSTYYADSVKGRFTISRDNAKNTVYLQMNSLKPEDTADYYCAADNTNDEDTGYYWGQGTQVTVSS” here?
Answer: Its value is “high polyreactivity”.

Question: Which “polyreactivity (PSR sort gate)” value does the source give for “QVQLVESGGGLVQAGGSLRLTCAASRIIFRKYAMGWYRQAPGKERELVAAISSSAGSTYYADSVKGRFTISRDNAKNTVYLQMNSLKPEDTAVYYCAADRHYTRYDYWGQGTQVTVSS” here?
Answer: The value was “high polyreactivity”.

Question: For “QVQLVESGGGLVQAGGSLRLSCAASGRIFQRNAMGWYRQAPGKVWELVAAITSTGVRTYYADSVKGRFTISRDNAKNTVYLQMNSLKPEDSAVYYCNAVGRRVRTWHDYDYWGQGTQVTVSS”, which “polyreactivity (PSR sort gate)” value is on record?
Answer: Its value is “high polyreactivity”.

Question: Which “polyreactivity (PSR sort gate)” value does the source give for “QFQLVESGGGLVQAGGSLRLSCAASGGTFNQYAMGWYRQAPGKEREFVASISRRGGSTYYADSVKGRFTISRDNAKNTVDLQMNSLKPEDTAVYYCAADAFFRLDYYYWGQGTQVTVSS” here?
Answer: The value was “high polyreactivity”.

Question: Which “polyreactivity (PSR sort gate)” value does the source give for “QVQLVESGVRLLQAGGSLRLSCAASGRIFGVYAMGWYITAPGKERELVAAIRGGGSTKYADSVKGRFTISRDNAKNTVYLQMKSLKPEDTAVYYFAARKLYYKHDYWGQGTQVTVSS” here?
Answer: The value was “low polyreactivity”.

Question: With “QVQLVESGGGLVQAGGSLRLSCAASGITFKRNAMGWYRQAPGKERELVAAISTTGGRTYYADSVKGRFTISRDNAKNTVYLQMNSLKPEDTAVYYCAARGGPVTYDYWGQGTQVTVSS” as the sequence, how does the “polyreactivity (PSR sort gate)” value read?
Answer: Its value is “high polyreactivity”.

Question: Which “polyreactivity (PSR sort gate)” value does the source give for “QVQLVESGGGLVQAGGSLRLSCAASGSTFFTYTMGWYRQAPGKERELVAAISSGGSTYYADSVKGRFTISRDNAKNTVYLQMNSLKPEDTAVYYLLRGQGTQVTVSS” here?
Answer: The value was “low polyreactivity”.

Question: With “QVQHVESGGGLVQAGGSLRLSCAASGYIFYTYAMGWYRQAPGKERELVAGINRGDSTNYADSVKGRFTISRDNAKNTVYLQMNSLKPEDTAVYYCNARQRTYYRTHRIRHKGNGYWGQGTQVTVSS” as the sequence, how does the “polyreactivity (PSR sort gate)” value read?
Answer: The value was “low polyreactivity”.

Question: With “QVQLVESGGGLVQAGGSLRLSCAASGSIFRFYAMGWYIQAPGKERELVAGITWSGASTYYADSVKGRFTISRDNAKNTVYLQMNSLKPEDNAVYYCSAKSLIVRYDSWGQGTQVTVSS” as the sequence, how does the “polyreactivity (PSR sort gate)” value read?
Answer: Its value is “high polyreactivity”.
